From the nanobody polyreactivity screen of Harvey et al. (2022) come the findings set out here.

The data set can be described thus: yeast display, Sf9 membrane polyspecificity reagent, FACS + sequencing; frameworks hold sequencing errors. Put shortly: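 Nanobodies from a synthetic yeast display library (Saccharomyces cerevisiae BJ5465), induced 36–48 hours with galactose, were stained 1 hour at 4 °C with 10% biotinylated, detergent-solubilized Sf9 membrane reagent, enriched on streptavidin microbeads, then FACS-sorted. Anti-HA (expression) and streptavidin (reagent binding) fluorescence set low and high (top ~1%) gates. Polyreactivity labels come from the gate of origin. Genes were colony-PCR amplified, MiSeq 2 × 250 sequenced and filtered by CDR length.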
As for “QVQLVESGGGLVQAGGSLRLSCAASGTTYYNAMGWYRQAPGKERELVAAIRFRSGSTYYADSVKGRFTISRDNAKNTVFLQMNSLKPEDTAVYYCNIVPYRGYRRYGYWGQGTHVTVSS”, the “polyreactivity (PSR sort gate)” value is listed as “high polyreactivity”.
Take “QVQLVESGGGLVQAGGSLRLSCAASGRIFLGYAMGWYRQAPGKEREFVAAITSSGGSTYYADSVKGRFTISRDNAKNTVYLLMNSLKPEDTAVYYCAARVTKLRTSSLRGYWGQGTQVTVSS”: the “polyreactivity (PSR sort gate)” value is on record as “high polyreactivity”.
As to “QVQLVESGGRLVQAGGSLRISCAASGNTFVRYAMGWYRQAPGKQSELVASISTSGGSTYYADSVKGRFTISRDNAKNTVYLQMNSLKPQDTAVYYCAARLPRTRYWEDFWGQGTQVSVSS”, the “polyreactivity (PSR sort gate)” value is “high polyreactivity”.
With “QVQLEESPGGLVQAGGSLRLSCAASGRIIGRYAMGWTRQAPGKERELVAAISYRGGSTYYADSVKGRFTISRDNAKNTVYLQMNSLKPEDTAVYYCAKDSRSWPFKYDYWGQGTQVTVSS”, the “polyreactivity (PSR sort gate)” value is listed as “high polyreactivity”.
Take “QVQLVESVGGIVQAGGSLRLSCDASGRTFGRSAMGSYRQAPGKERELVAGISRAGDSTHYAESVKGRCTISRDNAKNTVYLQMNSLKPEDTAVYYCNKETPTIGARKYEYWGQGTQVTVSS”: the “polyreactivity (PSR sort gate)” value is “low polyreactivity”.
“QVQLVESAGGLVQAGGSLRLSCDASVSTFGYYAMGWYRQAPGKERELVAVIRRGGSTNYADSVKGRFTISRDNAKNTVYLQMNSLKPEDTAVYYCAKSQRGTVYSYYYWGQGNQVTVSS”: the “polyreactivity (PSR sort gate)” value is recorded as “high polyreactivity”.
Then “QVQLVESGGGLVQAGGSLRLSCAASGSILTRNAMGWYRQAPGKERELVAAISYSGVRTYYADSVKGRFTISRDNAKNTVYLQMNSLKPEDTAVYYCNAVISSRYDYWGQGTQVTVSS”, with “high polyreactivity”; and “QVQLVESGGGLVQAGGSLRLSCAASGLTVGGNVMGWYRQAPGKERELVAAISRSGDRTYYADSVKGRFTISRDNAKNTVYLQMNSLKPEDTAVYYCAVRVLYRQVFRYDYWGQGTQVTVSS”, with “high polyreactivity”.
For the sequence “QVQLVESWGGLVQAGGSLRLSCAASGSIFYTNVMGWYRQAPGKERELVARIDSGGSTNYADSVKGRFTISRDNAKNTVYLQMNSLKPEDTAVYYCAADWYIYDYWGQGTQVTVSS”, the “polyreactivity (PSR sort gate)” value was “low polyreactivity”.
The result for “QVQLVESGGGLVQAGGSLRLICAASGRIIGKNAMGWYRQARGKERELVAAIRYNGGRTYYADSVKGRFTISRDNAKNTVYLQMNSLKPEDTAVYYCAARWRSWRYKYDYWGQGTQVTVSS” reads “high polyreactivity”; that for “QVQLVESGGGLVQAGGSLRLSCAASGSIFTENDMGWYRQAPGKEREMVAAIDWDGGRTYYADSVKGRFTISRDNAKNTVYLQMNSLKPEDTAVYYCNKGRYWSNYFYWPSTHVYWGQGTQVTVSS”, “high polyreactivity”; that for “QVQLVESGGGLVQAGGSLRLSCAASGSTFRGYAKGWNRQAPGKERELVAAISSRGARTHYADSVKGRFTISRDNAKNTVYLQMNSLKPEDTAVYYCAVGSPYYDGMDYWGQGTQVTVSS”, “low polyreactivity”.
With “QFQLVESGGGLVQAGGSLRLSCAASGSIFSVYAMGWYRQAPGKERELVAAITNRGGSTYYADSVKGRFTISRDNAKNTVYLQMNSLKPEDTAVYYCARGPVSYGGLYDYWGQGTQVIVSS”, the “polyreactivity (PSR sort gate)” value is reported as “low polyreactivity”.
Then “QVQLVESGGGLVQAGGSLRLSCAASGGIFAPYVMGWYRQAPGKERELVAGITWSGGSTYYADSVKGRFTISRDNAKITVYLQMNSLKPEDTAVYYCAAEWYYSVIWLYEYWGQVTQVTVSS”, with “high polyreactivity”; and “QVQLVESGGGIVQAGGSLRLSCAASGRIFIWYDMGWYRQAPGKERELVAAITQSDDITYYADSVKGRFTISLDNAKNTVYLQMNSLKPEDTAVYYCAVDKPYPYRIIIWYEYDYWGQGTQVSVSS”, with “low polyreactivity”.
Take “QVELQVSGGGLVRAGGSLRLSCAASGNIFDADIMGWYRQAPGKERELVASITGGGSTSYAESAKGRFTISRDNAKNAVYLQMNSLKPEDTAVYYCARDSWWYHHYDYWGQGTQVTVSS”: the “polyreactivity (PSR sort gate)” value was “low polyreactivity”.
As for “QVQLVESGGGLVQAGGSLRLSCAASGRTFYQYAMGWYRQAPGKERELVAAITRRGGSTYYADSVKGRFTISRDNAKNTVYLQMNSLKPDDTAVYYCNAQYKKGFDYWGQGPQVTVSS”, the “polyreactivity (PSR sort gate)” value is reported as “high polyreactivity”.
Then “QVQLVESGGGLVQAGGSLRLSCAASGRIFGRNVMGWYRQAPGKERELVAAITTGGGSTYYADSVKGRFTISRDNAKNTVYLQMNSLKPEDTAVYYCATDRRHEYSSRRYYYWGQGTQVTVSS”, with “high polyreactivity”.
Take “QVQLVESGGGLVQAGGSLRLSCAASGSTFDYNTMGWYRQAPGKERELVAGIRSSGARTYYADSVKGRFTISRDNAKNTVYLQMNSLKPEDTAVYYCAKTDGFYRGYGYWGQGTQVTVSS”: the “polyreactivity (PSR sort gate)” value is “low polyreactivity”.
For the sequence “QVQLVESGGGLVQAGGSLRLSCAASGFIFSYYAMGWYRQAPGKERELVAAITWDGGSTYYADSVKGRFTISRDNAKNTVYLQMNSLKPEDTAVYYCNAYYYYRRPLEGGYGGQGTQVTVSS”, the “polyreactivity (PSR sort gate)” value is on record as “low polyreactivity”.
The result for “QVQLVESGGGLVQAGGSLRLSCAASGSIFGKYTMGWYRQAPGKERELVAAITSGGSTNYADSVKGRFTISRDNAKNSVYLQMNSLKPEDTSVYYCAAPGTWIPSSTECGDGYDYWGQGTQVTVSS” reads “low polyreactivity”; that for “QVQLVESGGGLVQAGGSLRLSCAASGSILWSYAMGWYRQAPGKERELVAAIRSGGSTYYADSVKGRFTISRDNAKNTVYLQMNSLKPEDTAVYYCNATYAPLFEYDYWGQGTQVTVSS”, “low polyreactivity”; that for “QVQLVESGGGLVQAGGSLRLSCAASGRIFQPYAMGWYRPAPGKERELVAVITSGGSTNYADSVKGRFTISRDNAKNTVYLQMNSLKPEDTAVYYCNAVRTVNDYHYDYWGQGTQVTVSS”, “high polyreactivity”.
Then “QVQHVESGGGLVQAGGSLRVSCAASGFIFSAYAMGRYRKATGKERELVAAISSGGSTYYADSVKGRFTISRDNAKNTVYLQMNSLKPEDTEVYYCAAVYTGRYRYDYWGQGTHVTVSS”, with “low polyreactivity”.
Then “QVQLVESGGGLVQAGGSLRLSCAASGSTFLVYDRGWYRQAPGKERELVAAITWSGGSTYYADSVKGRFTISRDNAKNTVYLQINSLTPEYTAVYYCAAEIHRTYSWEYPYEMYWGQGTQVTVSS”, with “high polyreactivity”; and “QVQLVESGGGLVQAGGSLRLSCAASGISFGNYAMGWYRQAPGKERELVATISRSGGSTYYADSVKGRFTISRDNAKNTVYLQMNSLKPEDTAVYYCAAQDARRIVYYRYYYWGQGTQVTVSS”, with “high polyreactivity”; and “QVHLVESGGGLVQAGGSLRLSCAASGITIYVYAMGWYRQAPGKEREFVAAINGRGGSPYYADSVKGRFTISRDNAKNTVYLQMNSLKPEDTAVFYCAAESLAIYYKYPPYDYWGQGSQVTVSS”, with “high polyreactivity”.
Regarding “QVQLVESGGGLDQAGGSLRLSCAASGSTFYAYTMGWYRQAPGKERELVARISGRGGSTYYADSVKGRFTISRDNAKNTVFLQMYSLKPEDTAVYFCASRVYGSYRGIQYGYWGQGTQETVSS”, the “polyreactivity (PSR sort gate)” value is given as “high polyreactivity”.
As for “QVQLVESGGGLVQAGGSLRLSCAASGSIFTDNAMGWYRQAPGKERELVAAITGRGGNTYYADSVKGRFTISRDNAKNTVYLQMNSLKPEDTAVYYCAARIFRTRKPLGYWGQGTQVTVSS”, the “polyreactivity (PSR sort gate)” value was “high polyreactivity”.
Then “QVQLVESGGGLVQAGGSLRLSCAASGRIFGTNAMGWYRQAPGKERELVADITSGGSTNYADSVKGRFTISRDNAKNTVYLQMNSLKPEDTAVYDCAADVIGDLRWYRDEYWGQGTQVTVSS”, with “low polyreactivity”; and “QVQLVESGGGLVQAGGSLRLSCAASGGICGYYAMGWYRQAPGKERELVAAISWTGGSTYYADSVKGRFTISRDNAKNTVYLQMNSLKPEDTAVYYCAASDSFGYDYWGQGTQVTVSS”, with “high polyreactivity”; and “QVQLVESGGGLVQAGGSLRLSCAASGLTIFVNAMGWYRQAPGKERELVATISGGGSTYYADSVKGRFTISRDNAKNTVYLQMNSLKPEDTAVYYCNAADVGGPWWYPYTYNYWGQGTQVTVSS”, with “low polyreactivity”.
The result for “QVQLVESGGGLVQAGGSLRLSCAASGSTFPVYAMGWYRQAPGKERELVAAITSGGSTNYADSVKGRFTISRDNAKNTVYLQMNSLKPEDTAVYYCNAEDIYRKRDFYHRLYDYWGQGTQVTVSS” reads “low polyreactivity”; that for “QVQLVESGGGLVQAGGSLRLSCAASGRIFGGNAMGWYRQAPGKERQLVAAISKRGGSTYYADSVKGRFTISRDNAKNTVYLQMNSLKPEDTAVYYCAATPYSDQGLDYGYWGQGTQVTVSS”, “high polyreactivity”; that for “QVQLVESGGGLVQAGGSLRLSCAASGGTFRPNAMGWYRQAPGKERELVAAITRSGGSTYYADSVKGRFTISRDNAKNTVYLQMNSLKPEDTAVYYCARDLRECGQGTQVTVSS”, “low polyreactivity”.
Consider “QVQLVESAAGLVQAGGSLRLSCAASGSIFSYYAMGWSRQAPGKERELVAAITGRGGNTYYADSVKGRFTISRDNAKNTVYLQMNSLKPEDTAVDYCAKDYFGWYDVETPYDYWGQGTQVTVSS”, for which the “polyreactivity (PSR sort gate)” value is listed as “low polyreactivity”.
Take “QVQLVESGGGLVQAGGSLRLSCAASGRTFQFYVMGWYRQAPGKERELLASIRSGGSTNYADSVKGRFTISRDNAKNTVYLQMNSLKPEDTAVYYCNADAYGTPEFTSYAVRYDYWGQGTQVTVSS”: the “polyreactivity (PSR sort gate)” value was “low polyreactivity”.
For the sequence “QVQLVESGGGLVQAGGSLRLSCAASGRIFSTYTMGWYRQAPGKERELVAAIRANGGSTYYADSVKGRFTISRDNAKNTVYLQMNSLKPEVTAVYYCNARRPIGTGYYWGQGTQVTVSS”, the “polyreactivity (PSR sort gate)” value was “high polyreactivity”.
With “QVQLVESGGGLVQAGGSLRLTCAASGRIFTTYAMGWYRQAPGKERELVAAISRSGGSTYYADSVKGRFTISRDNAKNTVYLQMNSMKPEDTAVYYCAAVPTSNSFRSSFYYWGQGTQVTVSS”, the “polyreactivity (PSR sort gate)” value was “high polyreactivity”.
In the case of “QEQLVESGGGLVQAGGSLRLSCAASGSIFATYAMGWNRQAPVKERELVAAITSSDGSTNYADSVKGRFTISRDNAKNTVYLLMNSLKPEDTAVYYCAADGTVRSLGRYYHWGQGTQVTVSS”, the “polyreactivity (PSR sort gate)” value is reported as “low polyreactivity”.
Take “QVQLVESGGGLVQAGGSLRLSCAASGSIFSRNAMGWYRQAPGKERELVAAISYSSGSTYYADSVKGRFTLSRDNAKNTVYLQMNSLKPEDTAVYYCAADTTKLQGAEVDFWGQGTQVTVSS”: the “polyreactivity (PSR sort gate)” value was “low polyreactivity”.
